T1: 9-1-1 clamp (Ddc1–Mec3–Rad17) (S. cerevisiae, UniProt Q08949;Q02574;P48581)
T1 sequence 1: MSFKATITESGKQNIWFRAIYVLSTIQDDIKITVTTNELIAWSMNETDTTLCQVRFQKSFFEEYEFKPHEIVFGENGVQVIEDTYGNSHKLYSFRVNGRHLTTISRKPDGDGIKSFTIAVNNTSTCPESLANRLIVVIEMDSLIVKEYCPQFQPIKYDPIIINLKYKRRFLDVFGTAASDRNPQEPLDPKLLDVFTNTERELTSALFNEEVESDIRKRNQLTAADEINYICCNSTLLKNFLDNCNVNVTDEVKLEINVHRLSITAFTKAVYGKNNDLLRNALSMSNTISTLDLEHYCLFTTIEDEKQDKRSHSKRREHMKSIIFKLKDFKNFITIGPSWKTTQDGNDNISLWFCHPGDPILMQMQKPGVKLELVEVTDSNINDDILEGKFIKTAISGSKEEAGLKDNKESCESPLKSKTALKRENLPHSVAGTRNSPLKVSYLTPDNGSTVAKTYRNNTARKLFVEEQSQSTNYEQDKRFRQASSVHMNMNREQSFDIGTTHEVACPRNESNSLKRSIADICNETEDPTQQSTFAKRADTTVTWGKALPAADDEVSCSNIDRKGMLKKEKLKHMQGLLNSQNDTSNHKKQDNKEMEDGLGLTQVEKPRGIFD
T1 sequence 2: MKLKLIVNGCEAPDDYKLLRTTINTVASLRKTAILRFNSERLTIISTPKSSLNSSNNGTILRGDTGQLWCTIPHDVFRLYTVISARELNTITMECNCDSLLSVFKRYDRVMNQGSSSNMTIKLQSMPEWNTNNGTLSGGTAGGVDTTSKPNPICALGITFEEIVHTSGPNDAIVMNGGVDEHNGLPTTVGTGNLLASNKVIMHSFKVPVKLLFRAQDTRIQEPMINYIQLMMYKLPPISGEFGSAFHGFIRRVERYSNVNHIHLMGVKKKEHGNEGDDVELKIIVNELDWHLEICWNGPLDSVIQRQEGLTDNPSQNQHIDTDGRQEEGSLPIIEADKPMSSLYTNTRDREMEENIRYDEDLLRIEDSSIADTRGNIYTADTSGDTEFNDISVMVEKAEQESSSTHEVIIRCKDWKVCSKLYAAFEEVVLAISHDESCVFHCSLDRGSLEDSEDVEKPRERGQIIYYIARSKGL
T1 sequence 3: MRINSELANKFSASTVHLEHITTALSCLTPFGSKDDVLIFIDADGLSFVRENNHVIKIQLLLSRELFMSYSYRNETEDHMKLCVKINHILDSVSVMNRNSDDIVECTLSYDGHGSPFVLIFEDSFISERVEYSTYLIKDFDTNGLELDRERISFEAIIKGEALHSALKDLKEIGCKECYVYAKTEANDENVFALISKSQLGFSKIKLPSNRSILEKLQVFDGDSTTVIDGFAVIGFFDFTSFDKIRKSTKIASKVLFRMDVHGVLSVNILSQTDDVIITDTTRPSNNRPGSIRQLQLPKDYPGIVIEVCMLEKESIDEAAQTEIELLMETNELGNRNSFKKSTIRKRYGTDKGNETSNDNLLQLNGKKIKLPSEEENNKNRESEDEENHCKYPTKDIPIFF

T2: Rad17 (S. cerevisiae, UniProt P48581 1-401)
T2 sequence: T1 sequence 3

B1: Rad24 (natural protein)
chain: MDSTNLNKRPLLQYSLSSLGSQITKWSSSRPTSPVRKARSTENDFLSKQDTSSILPSINDDGGEQWYEKFKPNCLEQVAIHKRKLKDVQEALDAMFLPNAKHRILLLSGPSGCSKSTVIKELSKILVPKYRQNSNGTSFRSTPNEHKVTEFRGDCIVNDLPQMESFSEFLKGARYLVMSNLSLILIEDLPNVFHIDTRRRFQQLILQWLYSSEPLLPPLVICITECEIPENDNNYRKFGIDYTFSAETIMNKEILMHPRLKRIKFNPINSTLLKKHLKFICVQNMKMLKEKNKWNKRQEVIDYIAQETGDIRSAITTLQFWATSSGSLPISTRESTISYFHAIGKVIHGSHSTNNDNEMINNLFENSNNLLSKEDFKLGILENYNTFNKGEFSISDASSIVDCLSECDNMNGLPESNEYGLREVRKTFRNISKQGHNHGTVYFPREWKVRKLQNSFKVQAEDWLNVSLYKYNAVHSFRNITLEFGYYAPLIRKCQSYKKKYILYYLKNLPSGSSGPKQTMDKFSDIMKVENGIDVVDRIGGPIEALSVEDGLAPLMDNDSNNCDHLEDQKKERDRRLRMLIDQYERNVMMANDDLEDEETSFNDDPIVDSDSDNSNNIGNETFGRSDEDESLCEILSQRQPRKAPVISESLSDSDLEIL
B2: His-PK-Mec3 (natural protein)
chain: T1 sequence 2
B3: Ddc1 (natural protein)
chain: T1 sequence 1
B4: Rfc2 (natural protein)
chain: MFEGFGPNKKRKISKLAAEQSLAQQPWVEKYRPKNLDEVTAQDHAVTVLKKTLKSANLPHMLFYGPPGTGKTSTILALTKELYGPDLMKSRILELNASDERGISIVREKVKNFARLTVSKPSKHDLENYPCPPYKIIILDEADSMTADAQSALRRTMETYSGVTRFCLICNYVTRIIDPLASRCSKFRFKALDASNAIDRLRFISEQENVKCDDGVLERILDISAGDLRRGITLLQSASKGAQYLGDGKNITSTQVEELAGVVPHDILIEIVEKVKSGDFDEIKKYVNTFMKSGWSAASVVNQLHEYYITNDNFDTNFKNQISWLLFTTDSRLNNGTNEHIQLLNLLVKISQL
B5: Rfc3 (natural protein)
chain: MSTSTEKRSKENLPWVEKYRPETLDEVYGQNEVITTVRKFVDEGKLPHLLFYGPPGTGKTSTIVALAREIYGKNYSNMVLELNASDDRGIDVVRNQIKDFASTRQIFSKGFKLIILDEADAMTNAAQNALRRVIERYTKNTRFCVLANYAHKLTPALLSRCTRFRFQPLPQEAIERRIANVLVHEKLKLSPNAEKALIELSNGDMRRVLNVLQSCKATLDNPDEDEISDDVIYECCGAPRPSDLKAVLKSILEDDWGTAHYTLNKVRSAKGLALIDLIEGIVKILEDYELQNEETRVHLLTKLADIEYSISKGGNDQIQGSAVIGAIKASFENETVKANV
B6: Rfc4 (natural protein)
chain: MSKTLSLQLPWVEKYRPQVLSDIVGNKETIDRLQQIAKDGNMPHMIISGMPGIGKTTSVHCLAHELLGRSYADGVLELNASDDRGIDVVRNQIKHFAQKKLHLPPGKHKIVILDEADSMTAGAQQALRRTMELYSNSTRFAFACNQSNKIIEPLQSRCAILRYSKLSDEDVLKRLLQIIKLEDVKYTNDGLEAIIFTAEGDMRQAINNLQSTVAGHGLVNADNVFKIVDSPHPLIVKKMLLASNLEDSIQILRTDLWKKGYSSIDIVTTSFRVTKNLAQVKESVRLEMIKEIGLTHMRILEGVGTYLQLASMLAKIHKLNNKA
B7: Rfc5 (natural protein)
chain: MSLWVDKYRPKSLNALSHNEELTNFLKSLSDQPRDLPHLLLYGPNGTGKKTRCMALLESIFGPGVYRLKIDVRQFVTASNRKLELNVVSSPYHLEITPSDMGNNDRIVIQELLKEVAQMEQVDFQDSKDGLAHRYKCVIINEANSLTKDAQAALRRTMEKYSKNIRLIMVCDSMSPIIAPIKSRCLLIRCPAPSDSEISTILSDVVTNERIQLETKDILKRIAQASNGNLRVSLLMLESMALNNELALKSSSPIIKPDWIIVIHKLTRKIVKERSVNSLIECRAVLYDLLAHCIPANIILKELTFSLLDVETLNTTNKSSIIEYSSVFDERLSLGNKAIFHLEGFIAKVMCCLD

Legend:
Experiment in all cases: cryo-EM structure
[1] = target: T1, 9-1-1 clamp (Ddc1–Mec3–Rad17)
Ddc1 = target: B3
Rad24 = target: B1
Rad17 = target: T2, Rad17

B1
binding result [1]: binds

B2
binding result (Ddc1): binds

B3
binding result (Rad24): binds

B4
binding result (Ddc1): binds

B5
binding result (Rad17): binds

B6
binding result (Rad17): binds | binding result (Rad24): binds

B7
binding result [1]: binds | binding result (Rad24): binds
